Measurements as given in publication PMC7646482.

Assays:
Assay in all cases: SPR
[1] = target: Ab77 with a T28I mutation (human)
[2] = target: Other beneficial substitutions in Ab77 and Ab31
[3] = target: Ab62-S74P (human)
[4] = target: Ab62-D100dG (human)

B1: Recombinant dimeric HARS (aa1-506) (enzyme)
chain: MAERAALEELVKLQGERVRGLKQQKASAELIEEEVAKLLKLKAQLGPDESKQKFVLKTPKGTRDYSPRQMAVREKVFDVIIRCFKRHGAEVIDTPVFELKETLMGKYGEDSKLIYDLKDQGGELLSLRYDLTVPFARYLAMNKLTNIKRYHIAKVYRRDNPAMTRGRYREFYQCDFDIAGNFDPMIPDAECLKIMCEILSSLQIGDFLVKVNDRRILDGMFAICGVSDSKFRTICSSVDKLDKVSWEEVKNEMVGEKGLAPEVADRIGDYVQQHGGVSLVEQLLQDPKLSQNKQALEGLGDLKLLFEYLTLFGIDDKISFDLSLARGLDYYTGVIYEAVLLQTPAQAGEEPLGVGSVAAGGRYDGLVGMFDPKGRKVPCVGLSIGVERIFSIVEQRLEALEEKIRTTETQVLVASAQKKLLEERLKLVSELWDAGIKAELLYKKNPKLLNQLQYCEEAGIPLVAIIGEQELKDGVIKLRSVTSREEVDVRREDLVEEIKRRTGQPL
fold improvement of affinity over the parent Ab77 [1]: 3 fold | fold improvement of affinity over the parent antibody [2]: < 2 fold | fold improvement of affinity over the parent Ab62 [3]: 3 fold | fold improvement of affinity over the parent Ab62 [4]: 3 fold
